This is an account of results in patent US20130315910A1 (Xencor, published 2013).

Broadly, the Kd is the equilibrium constant for the complex coming apart. A low value points to higher affinity.

The target in assay [1] is T1, cynoFcγRIIIa (Macaca fascicularis, UniProt Q8SPW2).
T1 construct: extracellular region, C-terminal His- and GST-tag; also called cynomolgus monkey FcγRIIIa
In words: SPR. (Surface plasmon resonance follows binding to a sensor surface in real time, without labels.)

The target of assay [2] is T2, human FcγRIIb receptor protein (R&D Systems) (human, UniProt P31994 46-217).
T2 construct: Bought protein injected over captured antibody in Biacore; also called CD32b
T2 sequence (looked up): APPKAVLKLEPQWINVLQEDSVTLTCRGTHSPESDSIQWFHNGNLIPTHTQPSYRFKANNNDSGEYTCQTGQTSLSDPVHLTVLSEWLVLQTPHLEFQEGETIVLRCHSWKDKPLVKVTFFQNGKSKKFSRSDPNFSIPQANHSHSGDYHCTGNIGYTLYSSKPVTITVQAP
Nature of the assay: SPR.

Assay [3] concerns the target T3, human FcγRIIa (131R), His- and GST-tagged (human, UniProt P12318 34-217).
T3 construct: Expressed in HEK293T cells, purified by nickel chromatography; also called R131 FcγRIIa; not shown: 6xHis and GST tags of the pTT5 vector
T3 sequence (looked up): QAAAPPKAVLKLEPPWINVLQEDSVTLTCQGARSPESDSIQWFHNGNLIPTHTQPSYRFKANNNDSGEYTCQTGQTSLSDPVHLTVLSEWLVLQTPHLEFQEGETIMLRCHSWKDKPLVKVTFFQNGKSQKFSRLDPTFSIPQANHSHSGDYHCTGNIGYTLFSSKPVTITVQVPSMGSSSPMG
In words: SPR.

The target of assay [4] is T4, cynoFcγRIIb (Macaca fascicularis, UniProt A0A140HDP4).
T4 construct: extracellular region, C-terminal His- and GST-tag; also called cynomolgus monkey FcγRIIb
T4 sequence (receptor extracellular region): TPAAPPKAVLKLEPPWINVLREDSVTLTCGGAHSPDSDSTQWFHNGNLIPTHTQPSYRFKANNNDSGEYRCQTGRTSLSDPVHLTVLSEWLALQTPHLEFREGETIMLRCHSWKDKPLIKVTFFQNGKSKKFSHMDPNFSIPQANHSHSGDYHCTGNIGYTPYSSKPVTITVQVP
Nature of the assay: SPR, off-rate. On the procedure: (§1) Variants were screened for receptor affinity using Biacore™ technology, also referred to as Biacore herein, a surface plasmon resonance (SPR) based technology for studying biomolecular interactions in real time. SPR measurements were performed using a Biacore 3000 instrument (Biacore, Piscataway, N.J.). A protein A/G (Pierce Biotechnology) CM5 biosensor chip (Biacore) was generated using a standard primary amine coupling protocol. All measurements were performed using HBS-EP buffer (10 mM HEPES pH 7.4, 0.15 M NaCl, 3 mM EDTA, 0.005% vol/vol surfactant P20, Biacore). Antibodies at 20 nM or 50 nM in HBS-EP buffer were immobilized on the protein A/G surface and FcγRs were injected. After each cycle, the surface was regenerated by injecting glycine buffer (10 mM, pH 1.5). Data were processed by zeroing time and response before the injection of FcγR and by subtracting appropriate nonspecific signals (response of reference channel and injection of running buffer). Kinetic analyses were performed by global fitting of binding data with a 1:1 Langmuir binding model using BIAevaluation software (Biacore).
(§2) Variant antibodies were tested for their affinity to mouse or cynologous monkey FcγRs using Biacore SPR as described above. Specifically, antibodies were first immobilized on a protein A/G chip to high density, and then followed by injections of the extracellular domain of the mouse or cynologous monkey FcγR of interest. Both association and dissociation phases were tracked in real time using the Biacore technology.

In assay [5] the target is T5, mFcγRIV.
T5 construct: also called mouse FcγRIV; not shown: C-terminal His and GST tags (named only on our card)
T5 chain: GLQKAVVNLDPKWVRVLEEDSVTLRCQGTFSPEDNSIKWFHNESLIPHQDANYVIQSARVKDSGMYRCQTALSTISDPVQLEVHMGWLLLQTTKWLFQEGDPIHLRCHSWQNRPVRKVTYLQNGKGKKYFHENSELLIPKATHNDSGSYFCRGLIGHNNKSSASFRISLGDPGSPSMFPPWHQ
In words: SPR, off-rate. The procedure: as §1, §2

The target of assay [6] is T6, mFcγRIIb (Mus musculus, UniProt P08101).
T6 construct: extracellular region, C-terminal His- and GST-tag; also called mouse FcγRII
T6 sequence (receptor extracellular region, looked up): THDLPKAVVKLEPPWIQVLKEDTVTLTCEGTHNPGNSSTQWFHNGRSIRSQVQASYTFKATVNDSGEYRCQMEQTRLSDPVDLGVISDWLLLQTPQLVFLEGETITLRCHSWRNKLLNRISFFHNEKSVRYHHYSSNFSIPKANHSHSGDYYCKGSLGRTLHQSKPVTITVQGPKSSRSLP
In words: SPR, off-rate. The procedure: as §1, §2

For assay [7], the target named is T5, mFcγRIV. In words: SPR.
The target in assay [8] is T1, cynoFcγRIIIa. Nature of the assay: SPR, off-rate. The procedure: as §1, §2
Assay [9] has as its target T4, cynoFcγRIIb. In words: SPR.
Assay [10] has as its target T6, mFcγRIIb. In words: SPR.
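Wherever Fold vs WT IgG1 (off-rate) is given: fold improvement over WT IgG1 so higher means slower dissociation than WT.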

T1 sequence (Q8SPW2 17-208): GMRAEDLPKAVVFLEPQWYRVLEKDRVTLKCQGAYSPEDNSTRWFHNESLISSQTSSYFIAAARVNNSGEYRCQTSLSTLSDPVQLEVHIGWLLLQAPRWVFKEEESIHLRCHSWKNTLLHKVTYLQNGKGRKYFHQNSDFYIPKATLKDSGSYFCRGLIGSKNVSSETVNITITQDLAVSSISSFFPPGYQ

B1: G236F (antibody, human IgG1, kappa)
heavy: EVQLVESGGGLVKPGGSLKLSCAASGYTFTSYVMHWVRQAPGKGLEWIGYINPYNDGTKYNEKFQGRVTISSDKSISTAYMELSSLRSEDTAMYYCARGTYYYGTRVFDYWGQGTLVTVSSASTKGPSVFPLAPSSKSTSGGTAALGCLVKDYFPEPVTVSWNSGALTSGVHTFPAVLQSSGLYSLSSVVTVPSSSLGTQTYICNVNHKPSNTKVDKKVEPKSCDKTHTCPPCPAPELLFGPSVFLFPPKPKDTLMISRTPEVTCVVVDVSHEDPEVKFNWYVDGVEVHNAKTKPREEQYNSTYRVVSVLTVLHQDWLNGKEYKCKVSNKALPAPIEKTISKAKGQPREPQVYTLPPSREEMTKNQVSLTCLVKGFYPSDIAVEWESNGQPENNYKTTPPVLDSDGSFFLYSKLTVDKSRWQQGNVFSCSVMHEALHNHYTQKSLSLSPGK
light: DIVMTQSPATLSLSPGERATLSCRSSKSLQNVNGNTYLYWFQQKPGQSPQLLIYRMSNLNSGVPDRFSGSGSGTEFTLTISSLEPEDFAVYYCMQHLEYPITFGAGTKLEIKRTVAAPSVFIFPPSDEQLKSGTASVVCLLNNFYPREAKVQWKVDNALQSGNSQESVTEQDSKDSTYSLSSTLTLSKADYEKHKVYACEVTHQGLSSPVTKSFNRGEC
notes: HuAM4G7 anti-CD19 IgG1 (m1) with this Fc substitution, EU index; copies: 2 + 2
With B1, the “Fold vs WT IgG1 (off-rate)” value in [1] amounted to 0.138 fold. The “Fold vs WT IgG1” value in [2] was 0.0147 fold; in assay [3], 0.00859 fold. Moreover, the Kd in [2] and in assay [3] was 100 µM each time. In addition, the binding result in [4], in assay [5] and in [6] was “no binding” in each case.

B2: S267E/N325L (antibody, human IgG1, kappa)
heavy: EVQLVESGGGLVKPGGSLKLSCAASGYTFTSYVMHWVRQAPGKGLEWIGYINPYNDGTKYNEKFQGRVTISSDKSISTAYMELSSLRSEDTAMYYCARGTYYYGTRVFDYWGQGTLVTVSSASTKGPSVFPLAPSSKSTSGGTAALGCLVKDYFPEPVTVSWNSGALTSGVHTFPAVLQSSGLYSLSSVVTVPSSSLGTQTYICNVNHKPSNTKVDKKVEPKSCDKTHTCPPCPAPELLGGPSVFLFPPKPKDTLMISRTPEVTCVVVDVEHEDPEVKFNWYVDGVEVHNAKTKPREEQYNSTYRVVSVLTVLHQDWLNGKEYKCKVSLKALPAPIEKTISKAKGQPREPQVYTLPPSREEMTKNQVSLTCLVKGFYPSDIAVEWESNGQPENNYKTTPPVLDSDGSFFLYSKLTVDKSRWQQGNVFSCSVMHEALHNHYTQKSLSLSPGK
light: DIVMTQSPATLSLSPGERATLSCRSSKSLQNVNGNTYLYWFQQKPGQSPQLLIYRMSNLNSGVPDRFSGSGSGTEFTLTISSLEPEDFAVYYCMQHLEYPITFGAGTKLEIKRTVAAPSVFIFPPSDEQLKSGTASVVCLLNNFYPREAKVQWKVDNALQSGNSQESVTEQDSKDSTYSLSSTLTLSKADYEKHKVYACEVTHQGLSSPVTKSFNRGEC
notes: HuAM4G7 anti-CD19 IgG1 (m1) with these Fc substitutions, EU index; copies: 2 + 2
Regarding B2, the “Fold vs WT IgG1 (off-rate)” value in assay [7] was 0.24 fold. The “Fold vs WT IgG1” value amounted to 31.5 fold in assay [2] and 41.5 fold in [3]. The Kd in [2] was 0.0466 µM; in assay [3] it was 0.0207 µM. Moreover, the binding result in [4], in assay [8] and in [6] was “no binding” throughout.

B3: L234G (antibody, human IgG1, kappa)
heavy: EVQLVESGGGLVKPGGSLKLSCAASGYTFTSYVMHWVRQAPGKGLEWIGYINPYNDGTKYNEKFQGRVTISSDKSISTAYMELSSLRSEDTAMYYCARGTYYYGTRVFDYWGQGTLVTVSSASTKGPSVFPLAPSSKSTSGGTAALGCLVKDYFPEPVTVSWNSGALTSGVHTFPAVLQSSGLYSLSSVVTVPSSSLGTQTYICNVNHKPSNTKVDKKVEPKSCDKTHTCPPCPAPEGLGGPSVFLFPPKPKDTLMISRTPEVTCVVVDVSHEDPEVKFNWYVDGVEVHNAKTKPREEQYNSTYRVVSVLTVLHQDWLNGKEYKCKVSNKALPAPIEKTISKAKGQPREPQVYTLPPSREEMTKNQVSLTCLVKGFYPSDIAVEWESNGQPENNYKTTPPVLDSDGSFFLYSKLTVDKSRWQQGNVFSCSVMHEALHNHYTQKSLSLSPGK
light: DIVMTQSPATLSLSPGERATLSCRSSKSLQNVNGNTYLYWFQQKPGQSPQLLIYRMSNLNSGVPDRFSGSGSGTEFTLTISSLEPEDFAVYYCMQHLEYPITFGAGTKLEIKRTVAAPSVFIFPPSDEQLKSGTASVVCLLNNFYPREAKVQWKVDNALQSGNSQESVTEQDSKDSTYSLSSTLTLSKADYEKHKVYACEVTHQGLSSPVTKSFNRGEC
notes: as for B1
In the case of B3, the “Fold vs WT IgG1 (off-rate)” value in [1] is 0.113 fold. Besides, the “Fold vs WT IgG1” value is 0.147 fold in assay [2] and 0.0859 fold in assay [3]. Also, the dissociation constant (Kd) in assay [2] and in assay [3] was 10 µM in each case. Further, the binding result in [4], in assay [5] and in assay [6] was “no binding” throughout.

B4: L235R (antibody, human IgG1, kappa)
heavy: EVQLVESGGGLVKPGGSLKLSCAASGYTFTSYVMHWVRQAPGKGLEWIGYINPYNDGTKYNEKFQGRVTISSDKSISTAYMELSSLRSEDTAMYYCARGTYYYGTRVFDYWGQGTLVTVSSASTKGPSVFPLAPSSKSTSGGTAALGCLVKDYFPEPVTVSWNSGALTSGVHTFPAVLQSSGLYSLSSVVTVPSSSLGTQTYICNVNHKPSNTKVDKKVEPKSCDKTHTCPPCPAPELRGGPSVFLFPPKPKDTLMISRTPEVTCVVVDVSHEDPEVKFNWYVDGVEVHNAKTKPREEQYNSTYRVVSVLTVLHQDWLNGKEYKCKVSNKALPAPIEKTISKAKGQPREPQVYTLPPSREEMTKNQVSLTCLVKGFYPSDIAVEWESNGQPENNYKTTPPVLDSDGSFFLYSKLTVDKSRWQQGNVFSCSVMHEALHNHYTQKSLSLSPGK
light: DIVMTQSPATLSLSPGERATLSCRSSKSLQNVNGNTYLYWFQQKPGQSPQLLIYRMSNLNSGVPDRFSGSGSGTEFTLTISSLEPEDFAVYYCMQHLEYPITFGAGTKLEIKRTVAAPSVFIFPPSDEQLKSGTASVVCLLNNFYPREAKVQWKVDNALQSGNSQESVTEQDSKDSTYSLSSTLTLSKADYEKHKVYACEVTHQGLSSPVTKSFNRGEC
notes: as for B1
On to B4, for which the “Fold vs WT IgG1 (off-rate)” value in assay [7] came to 0.347 fold. In addition, the “Fold vs WT IgG1” value in assay [2] was 5.58 fold; in assay [3], 1.02 fold. For the same molecule, the values for the Kd in [2] and in [3] were 0.263 µM and 0.838 µM, respectively. The binding result in [4], in assay [8] and in assay [6] was “no binding” each time.

B5: L234Q (antibody, human IgG1, kappa)
heavy: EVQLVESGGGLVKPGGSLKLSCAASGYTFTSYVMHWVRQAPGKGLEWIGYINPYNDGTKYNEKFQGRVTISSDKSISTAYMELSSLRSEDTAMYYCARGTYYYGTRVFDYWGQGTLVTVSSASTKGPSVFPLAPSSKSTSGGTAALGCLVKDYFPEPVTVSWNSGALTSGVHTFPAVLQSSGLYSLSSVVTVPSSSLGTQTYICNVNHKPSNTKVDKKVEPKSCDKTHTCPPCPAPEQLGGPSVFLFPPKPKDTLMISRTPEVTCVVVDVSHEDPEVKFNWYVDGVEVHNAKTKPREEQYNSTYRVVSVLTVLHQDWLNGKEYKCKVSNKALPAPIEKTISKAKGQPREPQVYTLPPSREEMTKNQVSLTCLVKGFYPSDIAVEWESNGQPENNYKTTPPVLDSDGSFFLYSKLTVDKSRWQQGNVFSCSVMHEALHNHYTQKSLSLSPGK
light: DIVMTQSPATLSLSPGERATLSCRSSKSLQNVNGNTYLYWFQQKPGQSPQLLIYRMSNLNSGVPDRFSGSGSGTEFTLTISSLEPEDFAVYYCMQHLEYPITFGAGTKLEIKRTVAAPSVFIFPPSDEQLKSGTASVVCLLNNFYPREAKVQWKVDNALQSGNSQESVTEQDSKDSTYSLSSTLTLSKADYEKHKVYACEVTHQGLSSPVTKSFNRGEC
notes: as for B1
With B5, the “Fold vs WT IgG1 (off-rate)” value in assay [1] is 0.379 fold. Besides, the “Fold vs WT IgG1” value worked out at 0.147 fold in assay [2] and 0.0372 fold in assay [3]. Besides, the Kd came out at 10 µM in assay [2] and 23.1 µM in assay [3]. Also, the binding result in assay [4], in assay [5] and in [6] was “no binding” each time.

B6: G236V (antibody, human IgG1, kappa)
heavy: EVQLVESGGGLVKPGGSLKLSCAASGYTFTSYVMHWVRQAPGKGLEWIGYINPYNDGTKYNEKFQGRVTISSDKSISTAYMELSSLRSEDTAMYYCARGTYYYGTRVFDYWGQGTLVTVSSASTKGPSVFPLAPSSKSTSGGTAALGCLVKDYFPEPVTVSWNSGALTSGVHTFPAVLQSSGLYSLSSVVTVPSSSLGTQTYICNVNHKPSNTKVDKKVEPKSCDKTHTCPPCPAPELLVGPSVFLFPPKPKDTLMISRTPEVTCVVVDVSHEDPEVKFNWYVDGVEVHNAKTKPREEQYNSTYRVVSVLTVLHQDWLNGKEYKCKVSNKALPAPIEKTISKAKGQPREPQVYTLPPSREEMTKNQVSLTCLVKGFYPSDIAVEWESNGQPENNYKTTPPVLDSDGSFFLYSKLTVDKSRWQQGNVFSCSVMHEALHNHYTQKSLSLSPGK
light: DIVMTQSPATLSLSPGERATLSCRSSKSLQNVNGNTYLYWFQQKPGQSPQLLIYRMSNLNSGVPDRFSGSGSGTEFTLTISSLEPEDFAVYYCMQHLEYPITFGAGTKLEIKRTVAAPSVFIFPPSDEQLKSGTASVVCLLNNFYPREAKVQWKVDNALQSGNSQESVTEQDSKDSTYSLSSTLTLSKADYEKHKVYACEVTHQGLSSPVTKSFNRGEC
notes: as for B1
For the molecule B6, the “Fold vs WT IgG1 (off-rate)” value in assay [9] was determined as 0.703 fold. Also, the “Fold vs WT IgG1” value turned out to be 0.0147 fold in [2] and 0.106 fold in assay [3]. The Kd was found to be 100 µM in [2] and 8.08 µM in assay [3]. The binding result in assay [8], in [5] and in assay [6] was “no binding” throughout.

B7: S267E/L328H (antibody, human IgG1, kappa)
heavy: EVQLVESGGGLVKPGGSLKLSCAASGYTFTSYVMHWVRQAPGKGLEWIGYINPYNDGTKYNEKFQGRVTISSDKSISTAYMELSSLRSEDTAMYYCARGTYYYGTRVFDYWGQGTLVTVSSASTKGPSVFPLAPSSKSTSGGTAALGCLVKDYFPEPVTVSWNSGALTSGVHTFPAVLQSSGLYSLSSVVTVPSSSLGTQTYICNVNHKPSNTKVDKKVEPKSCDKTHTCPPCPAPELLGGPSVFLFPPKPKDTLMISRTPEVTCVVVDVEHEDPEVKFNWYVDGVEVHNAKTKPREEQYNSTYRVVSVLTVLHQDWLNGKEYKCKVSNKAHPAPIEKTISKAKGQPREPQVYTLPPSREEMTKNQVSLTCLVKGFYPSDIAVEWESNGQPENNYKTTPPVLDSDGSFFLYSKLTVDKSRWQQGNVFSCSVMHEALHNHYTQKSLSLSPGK
light: DIVMTQSPATLSLSPGERATLSCRSSKSLQNVNGNTYLYWFQQKPGQSPQLLIYRMSNLNSGVPDRFSGSGSGTEFTLTISSLEPEDFAVYYCMQHLEYPITFGAGTKLEIKRTVAAPSVFIFPPSDEQLKSGTASVVCLLNNFYPREAKVQWKVDNALQSGNSQESVTEQDSKDSTYSLSSTLTLSKADYEKHKVYACEVTHQGLSSPVTKSFNRGEC
notes: as for B2
In the case of B7, the “Fold vs WT IgG1 (off-rate)” value in assay [9] was 0.42 fold; in assay [10], 1.11 fold. Moreover, the “Fold vs WT IgG1” value in assay [2] amounted to 5.17 fold; in [3], 4.64 fold. Further, the Kd in assay [2] turned out to be 0.284 µM; in assay [3], 0.185 µM. Besides, the binding result in assay [8] and in assay [5] was “no binding” in each case.
